Assay results: IntAct's records for PubMed 33199366

B1: Neuronal migration protein doublecortin (Mus musculus), O88809 (parent)
chain: MELDFGHFDERDKASRNMRGSRMNGLPSPTHSAHCSFYRTRTLQALSNEKKAKKVRFYRNGDRYFKGIVYAVSSDRFRSFDALLADLTRSLSDNINLPQGVRYIYTIDGSRKIGSMDELEEGESYVCSSDNFFKKVEYTKNVNPNWSVNVKTSANMKAPQSLASSNSAQARENKDFVRPKLVTIIRSGVKPRKAVRVLLNKKTAHSFEQVLTDITEAIKLETGVVKKLYTLDGKQVTCLHDFFGDDDVFIACGPEKFRYAQDDFSLDENECRVMKGNPSAAAGPKASPTPQKTSAKSPGPMRRSKSPADSGNDQDANGTSSSQLSTPKSKQSPISTPTSPGSLRKHKVDLYLPLSLDDSDSLGDSM
partner: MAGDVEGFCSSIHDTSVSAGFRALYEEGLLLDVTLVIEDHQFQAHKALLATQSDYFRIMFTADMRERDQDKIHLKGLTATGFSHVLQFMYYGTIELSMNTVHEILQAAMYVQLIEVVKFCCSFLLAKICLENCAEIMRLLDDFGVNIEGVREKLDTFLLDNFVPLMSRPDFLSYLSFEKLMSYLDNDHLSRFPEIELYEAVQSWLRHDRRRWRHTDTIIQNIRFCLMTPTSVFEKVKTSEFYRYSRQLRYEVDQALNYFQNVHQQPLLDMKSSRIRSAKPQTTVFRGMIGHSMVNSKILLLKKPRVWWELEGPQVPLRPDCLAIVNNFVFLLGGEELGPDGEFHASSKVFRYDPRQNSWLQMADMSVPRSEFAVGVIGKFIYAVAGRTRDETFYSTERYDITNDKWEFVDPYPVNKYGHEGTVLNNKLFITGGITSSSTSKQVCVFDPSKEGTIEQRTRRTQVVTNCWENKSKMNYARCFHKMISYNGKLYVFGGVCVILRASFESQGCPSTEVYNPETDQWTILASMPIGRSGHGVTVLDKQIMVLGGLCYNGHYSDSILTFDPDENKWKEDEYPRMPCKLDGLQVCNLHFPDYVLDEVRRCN
B2: Serine/threonine-protein kinase DCLK1 (Homo sapiens), O15075 (parent)
chain: MSFGRDMELEHFDERDKAQRYSRGSRVNGLPSPTHSAHCSFYRTRTLQTLSSEKKAKKVRFYRNGDRYFKGIVYAISPDRFRSFEALLADLTRTLSDNVNLPQGVRTIYTIDGLKKISSLDQLVEGESYVCGSIEPFKKLEYTKNVNPNWSVNVKTTSASRAVSSLATAKGSPSEVRENKDFIRPKLVTIIRSGVKPRKAVRILLNKKTAHSFEQVLTDITDAIKLDSGVVKRLYTLDGKQVMCLQDFFGDDDIFIACGPEKFRYQDDFLLDESECRVVKSTSYTKIASSSRRSTTKSPGPSRRSKSPASTSSVNGTPGSQLSTPRSGKSPSPSPTSPGSLRKQRSSQHGGSSTSLASTKVCSSMDENDGPGEEVSEEGFQIPATITERYKVGRTIGDGNFAVVKECVERSTAREYALKIIKKSKCRGKEHMIQNEVSILRRVKHPNIVLLIEEMDVPTELYLVMELVKGGDLFDAITSTNKYTERDASGMLYNLASAIKYLHSLNIVHRDIKPENLLVYEHQDGSKSLKLGDFGLATIVDGPLYTVCGTPTYVAPEIIAETGYGLKVDIWAAGVITYILLCGFPPFRGSGDDQEVLFDQILMGQVDFPSPYWDNVSDSAKELITMMLLVDVDQRFSAVQVLEHPWVNDDGLPENEHQLSVAGKIKKHFNTGPKPNSTAAGVSVIATTALDKERQVFRRRRNQDVRSRYKAQPAPPELNSESEDYSPSSSETVRSPNSPF
partner: B1 partner
B3: Serine/threonine-protein kinase DCLK2 (Homo sapiens), Q8N568 (parent)
chain: MASTRSIELEHFEERDKRPRPGSRRGAPSSSGGSSSSGPKGNGLIPSPAHSAHCSFYRTRTLQALSSEKKAKKARFYRNGDRYFKGLVFAISSDRFRSFDALLIELTRSLSDNVNLPQGVRTIYTIDGSRKVTSLDELLEGESYVCASNEPFRKVDYTKNINPNWSVNIKGGTSRALAAASSVKSEVKESKDFIKPKLVTVIRSGVKPRKAVRILLNKKTAHSFEQVLTDITEAIKLDSGVVKRLCTLDGKQVTCLQDFFGDDDVFIACGPEKFRYAQDDFVLDHSECRVLKSSYSRSSAVKYSGSKSPGPSRRSKSPASVNGTPSSQLSTPKSTKSSSSSPTSPGSFRGLKQISAHGRSSSNVNGGPELDRCISPEGVNGNRCSESSTLLEKYKIGKVIGDGNFAVVKECIDRSTGKEFALKIIDKAKCCGKEHLIENEVSILRRVKHPNIIMLVEEMETATELFLVMELVKGGDLFDAITSSTKYTERDGSAMVYNLANALRYLHGLSIVHRDIKPENLLVCEYPDGTKSLKLGDFGLATVVEGPLYTVCGTPTYVAPEIIAETGYGLKVDIWAAGVITYILLCGFPPFRSENNLQEDLFDQILAGKLEFPAPYWDNITDSAKELISQMLQVNVEARCTAGQILSHPWVSDDASQENNMQAEVTGKLKQHFNNALPKQNSTTTGVSVIMNTALDKEGQIFCSKHCQDSGRPGMEPISPVPPSVEEIPVPGEAVPAPTPPESPTPHPPPAAPGGERAGTWRRHRD
partner: B1 partner

Variants of: B1
Details: with klh15_human KLHL15, Q96M94

Variant | effect of a mutation on the interaction
MELDFGHFDERDKASRNMRGSRMNGLPSPTHSAHCSFYRTRTLQALSNEKKAKKVRFYRNGDRYFKGIVYAVSSDRFRSFDALLADLTRSLSDNINLPQGVRYIYTIDGSRKIGSMDELEEGESYVCSSDNFFKKVEYTKNVNPNWSVNVKTSANMKAPQSLASSNSAQARENKDFVRPKLVTIIRSGVKPRKAVRVLLNKKTAHSFEQVLTDITEAIKLETGVVKKLYTLDGKQVTCLHDFFGDDDVFIACGPEKFRLAQDDFSLDENECRVMKGNPSAAAGPKASPTPQKTSAKSPGPMRRSKSPADSGNDQDANGTSSSQLSTPKSKQSPISTPTSPGSLRKHKVDLYLPLSLDDSDSLGDSM [Y259L] | decreasing interaction

Variants of: B2
Details: with klh15_human KLHL15, Q96M94

Variant | effect of a mutation on the interaction
Y265L | decreasing interaction

Variants of: B3
Details: with klh15_human KLHL15, Q96M94

Variant | effect of a mutation on the interaction
Y276L | decreasing interaction
